Laboratory results taken from article doi:10.1101/2022.03.30.486445 (bioRxiv, 2022).
Positions count from the first letter of the chain named. Blank lines part the entries; values can stand above or below the binder they belong to.

Legend:
His6-EB1-CyPet = molecular target: T1, His6-EB1-CyPet (human, UniProt Q15691 1-268); assay: FRET or BRET
T1 sequence: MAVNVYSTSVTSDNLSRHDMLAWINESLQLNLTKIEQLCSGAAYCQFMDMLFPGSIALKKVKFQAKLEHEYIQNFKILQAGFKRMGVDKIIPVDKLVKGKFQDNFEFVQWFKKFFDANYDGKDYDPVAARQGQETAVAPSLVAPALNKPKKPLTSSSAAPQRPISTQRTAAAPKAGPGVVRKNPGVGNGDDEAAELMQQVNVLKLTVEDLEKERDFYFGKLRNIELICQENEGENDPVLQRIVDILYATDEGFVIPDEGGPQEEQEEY

[1] = molecular target: doubly stabilized microtubules (GMPCPP and paclitaxel) (UniProt Q6B856 1-445); assay: co-sedimentation
[2] = molecular target: GMPCPP-stabilized HyLite 647/biotin-labeled microtubules (bovine) (UniProt Q6B856); assay: single-molecule TIRF microscopy

B1: YPet-Kif18B(708-828)-His6 (domain or fragment)
chain: KSRVPLGPSAMQNCSTPLALPTRDLNATFDLSEEPPSKPSFHECIGWDKIPQELSRLDQPFIPRAPVPLFTMKGPKPTSSLPGTSACKKKRVASSSVSHGRSRIARLPSSTLKRPAGPLVL
binding result (His6-EB1-CyPet): binds

B3: YPet-Kif18B(605-828)-His6 (domain or fragment)
chain: TRTMARRLSGPLHTLGIPPGPNCTPAQGSRWPMEKKRRRPSALEADSPMAPKRGTKRQRQSFLPCLRRGSLPDTQPSQGPSTPKGERASSPCHSPRVCPATVIKSRVPLGPSAMQNCSTPLALPTRDLNATFDLSEEPPSKPSFHECIGWDKIPQELSRLDQPFIPRAPVPLFTMKGPKPTSSLPGTSACKKKRVASSSVSHGRSRIARLPSSTLKRPAGPLVL
binding result (His6-EB1-CyPet): binds
fold increase in the Kd for MTs with importin α/β against without [1]: 9 fold

B6: YPet-Kif18B(605-707)-His6 (domain or fragment)
chain: TRTMARRLSGPLHTLGIPPGPNCTPAQGSRWPMEKKRRRPSALEADSPMAPKRGTKRQRQSFLPCLRRGSLPDTQPSQGPSTPKGERASSPCHSPRVCPATVI
binding result (His6-EB1-CyPet): binds

Other lines, results leading:

binding result (His6-EB1-CyPet): binds
B2: YPet-Kif18B(708-828) E2 (domain or fragment)
chain: B1 chain with L81N, P82N

binding result (His6-EB1-CyPet): binds
fold increase in the Kd for MT binding relative to YPet-Kif18B(605-828) [1]: ~2 fold
B4: YPet-Kif18B(605-828)-NLS1/2 (domain or fragment)
chain: B3 chain with K35A, K36A, R37A, K52A, R53A, K191A, K192A, K193A, R194A

dwell time at MT plus ends [2]: 5.56 s
dwell time at MT plus ends, with importin α/β [2]: 5.39 s
dwell time on the MT lattice [2]: 1.77 s
dwell time on the MT lattice, with importin α/β [2]: 2.3 s
on-rate on MTs (landing events per MT length and time) [2]: 0.26 µm·s^-1
on-rate on MTs (landing events per MT length and time), with importin α/β [2]: 0.35 µm·s^-1
B5: GFP-Kif18B (full-length human Kif18B N-terminally tagged with EGFP) (natural protein)
chain: MAVEDSTLQVVVRVRPPTPRELDSQRRPVVQVVDERVLVFNPEEPDGGFPGLKWGGTHDGPKKKGKDLTFVFDRVFGEAATQQDVFQHTTHSVLDSFLQGYNCSVFAYGATGAGKTHTMLGREGDPGIMYLTTVELYRRLEARQQEKHFEVLISYQEVYNEQIHDLLEPKGPLAIREDPDKGVVVQGLSFHQPASAEQLLEILTRGNRNRTQHPTDANATSSRSHAIFQIFVKQQDRVPGLTQAVQVAKMSLIDLAGSERASSTHAKGERLREGANINRSLLALINVLNALADAKGRKTHVPYRDSKLTRLLKDSLGGNCRTVMIAAISPSSLTYEDTYNTLKYADRAKEIRLSLKSNVTSLDCHISQYATICQQLQAEVAALRKKLQVYEGGGQPPPQDLPGSPKSGPPPEHLPSSPLPPHPPSQPCTPELPAGPRALQEESLGMEAQVERAMEGNSSDQEQSPEDEDEGPAEEVPTQMPEQNPTHALPESPRLTLQPKPVVGHFSARELDGDRSKQLALKVLCVAQRQYSLLQAANLLTPDMITEFETLQQLVQEEKIEPGAEALRTSGLARGAPLAQELCSESIPVPSPLCPEPPGYTGPVTRTMARRLSGPLHTLGIPPGPNCTPAQGSRWPMEKKRRRPSALEADSPMAPKRGTKRQRQSFLPCLRRGSLPDTQPSQGPSTPKGERASSPCHSPRVCPATVIKSRVPLGPSAMQNCSTPLALPTRDLNATFDLSEEPPSKPSFHECIGWDKIPQELSRLDQPFIPRAPVPLFTMKGPKPTSSLPGTSACKKKRVASSSVSHGRSRIARLPSSTLKRPAGPLVLPGDWH
